According to the supplement of paper PMC11780869:

System: Bacillus subtilis
Assay: cleaved RNA product abundance (RNA/gDNA barcode ratio) relative to median wild-type variant (ratio to wild type); higher = more accumulation of the downstream cleavage product
Outline: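 The B. subtilis chromosome carried reporter mRNAs, truncated aprE or tetM, containing barcoded RNase Y cleavage-site windows mutagenized using oligos with a 9% error rate. After growth in LB at 37°C from OD600 0.0003 to 0.3, cleaved RNA was gel-selected, reverse transcribed and barcode-sequenced next to genomic DNA barcodes, with UMI collapsing. Each construct's RNA:gDNA barcode ratio was scaled to the median construct with the unmutated site. That scaled ratio is reported as cleaved product abundance.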

[1] = experiment (reporter, strain, medium): exp 8a: truncated aprE reporter, strain BJT201 with 2% xylose (RNase J1 expressed), cleavage site: glnRA (positions -5 to +31 mutated)
[2] = experiment (reporter, strain, medium): exp 2b: truncated aprE reporter, strain BJT200, cleavage site: cggR-gapA (positions -7 to +36 mutated)
[3] = experiment (reporter, strain, medium): exp 4a: truncated aprE reporter, strain BJT201 with 2% xylose (RNase J1 expressed), cleavage site: cggR-gapA (positions -7 to +36 mutated)
[4] = experiment (reporter, strain, medium): exp 6: tetM reporter, strain 168, cleavage site: cggR-gapA (positions -7 to +36 mutated)

Sequence | cleaved RNA product abundance [1] | cleaved RNA product abundance [3] | further results
CGACATGTCCCGCTTCTTTCATTATTCCGTTAGCAACTGTTTTGATATATACATTTACCTTTTAAGAGGAGGAAT | 0.502 |  | 
CGACATGTCCCGCTTCTTTCATTAATCCGTAAGCAACTTTTTTGCTATATACATTTACCTTTTAAGAGGAGGAAT | 0.82 |  | 
CGACATGTCCCGCTTCTTTCATTAATCCGTTAGCAACTGTATTGCTATATACATATACCTTTTAAGAGGAGGAAT | 0.755 |  | 
ACAGACGAAGGAGCCGCAAAGAAGTTATAAAGGGATGAATAATCCCTCAATATAGATATCTCTCACTTATTTAAA |  | 0.475 | cleaved RNA product abundance [2]: 0.19
ACAGACGAAGGAGCCGCAAAGAAGTTATTAAGGGATGAATAATTCTTCAATATAAATATCTCTCACTTATTTAAA |  | 0.18 | 
ACAGACGAAGGAGCCGCAAAGAAGTTATTAAAGGATGAATAATCCCTCAATATAAACATCTCTCACTTATTTAAA |  | 0.206 | 
CGACATGTCCCGCTTCTTTCATTAATCCGTTATCATCTGTTTTGCTATATACATTTACCTTTTAAGAGGAGGAAT | 0.267 |  | 
ACAGACGAAGGAGCCGCAAAGAAGTTATTAAGGGCTGTATAATCCCTCAATATAAATATCTCTCACTTATTTAAA |  | 0.54 | 
ACAGACGAAGGAGCCGCAAAAAAGTTATTAAGGGATGAATAACCCCTCAATATAAATATCTCTCACTTATTTAAA |  | 0.458 | cleaved RNA product abundance [2]: 0.455
ACAGACGAAGGAGCCGCAAAGAAGTTATTAAGAGATGAATAATCCCTCAATATAAATATCTCTCACTTATTTAAA |  | 0.147 | cleaved RNA product abundance [2]: 0.111; cleaved RNA product abundance [4]: 0.135
ACAGACGAAGGAGCCGCAAAAAAGTTATTAAGGAATAAATAATCCCTCAATATAAATATCTCTCACTTATTTAAA |  |  | cleaved RNA product abundance [2]: 0.0862
CGACATGTCCCGCTTCTTTCATTATTCCGTTAGCAACTGTTTTGCTATACACATTTACCTTTTAAGAGGAGGAAT | 0.807 |  | 
ACAGACGAAGGAGCCGCAAATAAGTTATTAAGGGACGAATAATCCCTCAATATAAATATCTCTCACTTATTTAAA |  | 0.802 | cleaved RNA product abundance [2]: 0.65
CGACATGTCCCGCTTCTTTCATTATTCCGTTAGCAACTGTTTTGCTATATACATTAACATTTTAAGAGGAGGAAT | 2.49 |  | 
ACAGACGAAGGAGCCGCAAAGAAGTTATTACGGGATGAATAATCCCTCAATATAAATATCTCTCACTTATTTAAA |  | 0.46 | cleaved RNA product abundance [2]: 0.32; cleaved RNA product abundance [4]: 0.453
CGACATGTCCCGCTTCTTTCATTAATCAGTTAGCAACTGTTGTGCTATATACATTTACCTTTTAAGAGGAGGAAT | 0.354 |  | 
ACAGACGAAGGAGCCGCAAAGAAGTTATAAAGGGATGAATAATCCCTTAATATAAATATCTCTCACTTATTTAAA |  | 0.593 | cleaved RNA product abundance [2]: 0.56
CGACATGTCCCGCTTCTTTCATTAATCGGTTAGCAACTGTTTTGCTATCTACATTTACCTTTTAAGAGGAGGAAT | 0.132 |  | 
CGACATGTCCCGCTTCTTTCATTAATCCGTTAGTATCTGTTTTACTATATACATTTACCTTTTAAGAGGAGGAAT | 0.917 |  | 
ACAGACGAAGGAGCCGCAAAGAAGTTATTAAGGGATGAATAGTCCCTCAATATAAATATCTCTCACTTATTTAAA |  | 0.857 | cleaved RNA product abundance [2]: 0.912; cleaved RNA product abundance [4]: 1.25
ACAGACGAAGGAGCCGCAAAGAAGTTATTACGGGATGAATAAGCCCTCAATATAAATATCTCTCACTTATTTAAA |  |  | cleaved RNA product abundance [2]: 0.189

Sequence | cleaved RNA product abundance [1] | cleaved RNA product abundance [3] | further results
CGACATGTCCCGCTTCTTTCATTAATCCGTTCGCAACTGTTTTGCTATATATATTTACCTTTTAAGAGGAGGAAT | 0.324 |  | 
CGACATGTCCCGCTTCTTTCATTACTCCCCTAGCAACTGTTTGGCTATATATATTTACCTTTTAAGAGGAGGAAT | 0.221 |  | 
ACAGACGAAGGAGCCGCAAAGAAGTTATTAAGGGATGAATTATCCCTCAATATAAAAATCTCTCACTTATTTAAA |  | 0.966 | 
ACAGACGAAGGAGCCGCAAAGAAGTTATTAATGGATGACTAATCCCTCAATATAAATATCTCTCACTTATTTAAA |  | 0.114 | cleaved RNA product abundance [2]: 0.0938
ACAGACGAAGGAGCCGCAAACAAGTTATTAAGGGTTGAATAATCCCTCAATATAAATATCTCTCACTTATTTAAA |  | 0.183 | 
CGACATGTCCCGCTTCTTTCATTACTCCGTTAGCAACTGTTTTGCTATGTACATTTACCTTTTAAGAGGAGGAAT | 0.117 |  | 
ACAGACGAAGGAGCCGCAAAGAACTTATTAAGGGATGAATAATCCCTCCATATAAATATCTCTCACTTATTTAAA |  | 0.28 | 
ACAGACGAAGGAGCCGCAAAGAAGTTATTAAGGGATGAATAACCCCTTAATATAAATATCTCTCACTTATTTAAA |  | 0.505 | cleaved RNA product abundance [2]: 1.34
CGACATGTCCCGCTTCTTTCATTAATCAGTTAGCAACTGTTTTCCTATATACATTTACCTTTTAAGAGGAGGAAT | 0.433 |  | 
CGACATGTCCCGCTTCTTTCATTAATCCATTAGCAACTGTTTTGCTATATACATTCACCTTTTAAGAGGAGGAAT | 0.276 |  | 
CGACATGTCCCGCTTCTTTCATTAATCCATTAGCAACTGTTTTGCTATATACATTTACGTTTTAAGAGGAGGAAT | 0.903 |  | 
ACAGACGAAGGAGCCGCAAAGAATTTATTAAGGGATGAATAATCCCTCAATATAATTATCTCTCACTTATTTAAA |  | 0.354 | 
CGACATGTCCCGCTTCTTTCATTAATCCATCAGCAACTGTTTTGCTATATACATATACCTTTTAAGAGGAGGAAT | 0.507 |  | 
CGACATGTCCCGCTTCTTTCATTAATCCGTTAACAACTGTTTTGCTATATACATTTATCTTTTAAGAGGAGGAAT | 0.236 |  | 
CGACATGTCCCGCTTCTTTCATTAATCCGTTAGCAAGTGTTTTGCTTTATACATTTACCTTTTAAGAGGAGGAAT | 0.474 |  | 
ACAGACGAAGGAGCCGCAGAGAAGTTATTAAGGGATGAATAATCCATCAATATAAATATCTCTCACTTATTTAAA |  | 0.178 | 
CGACATGTCCCGCTTCTTTCATTAATCCGATAGCAACTGTTTTGCTATATACATTTACTTTTTAAGAGGAGGAAT | 0.547 |  | 
ACAGACGAAGGAGCCGCAAAGAAGTTAGTAAGGGATGAATAAACCCTCAATATAAATATCTCTCACTTATTTAAA |  | 0.158 | 
ACAGACGAAGGAGCCGCAAAGAAATTATTAAGAGATGAATAATCCCTCTATATAAATATCTCTCACTTATTTAAA |  | 0.117 | 
ACAGACGAAGGAGCCGCAAAGAAGTTACTAAGGGATAAATAATCCCTCAATATAAATATCTCTCACTTATTTAAA |  | 0.224 | cleaved RNA product abundance [2]: 0.206
ACAGACGAAGGAGCCGCAAAGAAGCTATTAAGGGATGAATAATCCCTCAATATAAATAACTCTCACTTATTTAAA |  | 0.674 | 

Sequence | cleaved RNA product abundance [1] | cleaved RNA product abundance [3] | further results
ACAGACGAAGGAGCCGCAAAGGAGTTATTAATGGATGAATAATCCCTCAATATAAATATCTCTCACTTATTTAAA |  | 0.114 | 
CGACATGTCCCGCTTCTTTCATTAATCCTTTAGCAACTGTCTTGCTATATACATTTACCTTTTAAGAGGAGGAAT | 0.661 |  | 
CGACATGTCCCGCTTCTTTCATTATTCCGTTAGCAAATGTTTTGCTATATACATTTACCTTTTAAGAGGAGGAAT | 1.75 |  | 
ACAGACGAAGGAGCCGCAAAGAAGTTATTAAGGGATGAATAATCAGTCAATATAAATATCTCTCACTTATTTAAA |  | 0.0967 | 
ACAGACGAAGGAGCCGCAAAGAAGTTATTTAGGGATGACTAATCCCTCAATATAAATATCTCTCACTTATTTAAA |  | 0.541 | 
ACAGACGAAGGAGCCGCAAAGAAGTTATTAAGGTATGAATAATCCATCAATATAAATATCTCTCACTTATTTAAA |  | 0.145 | cleaved RNA product abundance [2]: 0.125
CGACATGTCCCGCTTCTTTCATTAATCCTTTAGCAACTGTTTTCCTATATACATTTACCTTTTAAGAGGAGGAAT | 0.283 |  | 
ACAGACGAAGGAGCCGCAAAGAAGTTATTAAGGGATGAATAATGCCTCATTATAAATATCTCTCACTTATTTAAA |  | 0.127 | 
CGACATGTCCCGCTTCTTTCATTAATCCGTTATCAACTGTTTCGCTATATACATTTACCTTTTAAGAGGAGGAAT | 0.192 |  | 
ACAGACGAAGGAGCCGCAAAGAAGTTATTAAGGGATGAATAATCCCTGAAGATAAATATCTCTCACTTATTTAAA |  | 0.387 | 
ACAGACGAAGGAGCCGCAAAGAAGTTATTAAGGAATGAATAATCCTTCAATATAAATATCTCTCACTTATTTAAA |  | 0.265 | cleaved RNA product abundance [2]: 0.148
ACAGACGAAGGAGCCGCAAAGAAGTTATTAAGGGATGAATAATGCCTCACTATAAATATCTCTCACTTATTTAAA |  | 0.142 | 
ACAGACGAAGGAGCCGCAATGAAGTTATTAAGGGATGAATAATCCCTGAATATAAATATCTCTCACTTATTTAAA |  | 0.713 | 
CGACATGTCCCGCTTCTTTCATTAATCCGTCAGCAACTGTTTTGCTATATTCATTTACCTTTTAAGAGGAGGAAT | 0.112 |  | 
CGACATGTCCCGCTTCTTTCATTACTCCATTAGCAACTGTTTTGCTATATACATTTACCTTTTAAGAGGAGGAAT | 1.18 |  | 
ACAGACGAAGGAGCCGCAAAGATGTTATTATGGGATGAATAATCCCTCAATATAAATATCTCTCACTTATTTAAA |  | 0.343 | 
ACAGACGAAGGAGCCGCAAAGAAGTTCTTAATGGATGAATAATCCCTCAATATAAATATCTCTCACTTATTTAAA |  | 0.119 | 
CGACATGTCCCGCTTCTTTCATTAATCCGTTAGTAACTGTCTTGCTATATACATTTACCTTTTAAGAGGAGGAAT | 0.231 |  | 
ACAGACGAAGGAGCCGCAAAGAAGTTATTAAGGGATGAATCATGCCTCAATATAAATATCTCTCACTTATTTAAA |  | 0.251 | cleaved RNA product abundance [2]: 0.164
